Experimental data: the DeepSol protein solubility set

assay: soluble on expression in E. coli; label from the status in PepcDB or PDB records

Soluble on expression in E. coli, not soluble:
MGSDKIHHHHHHVNSDNNPNQISDIKPILKVYIENSGSMDGYMCDGSQLKDAIFDYVSDLSTCVDTTQLYYINNRVIPYHADLEQYIKTMNPITFQKAGGNRSNSDLSKMLSTVLDAMTDSTVSIFVSDCILDLPVSDAQRFLSTCQISIKNTINKGRKNIPLLGVEILKMKSDFNGKYFYQNGGSEVLTNVKRPYYIWIFGNSNVLAKLNTEVLFKGLEKYGYDNIISYCPKTSIPYDITNRALISKTINPIKGDYNATIRADFCTTLQSEDVLLNLDNYSFNNQNLIIENIKPIIATEREYSHFINITIPKGVNIAEDYLILKAPNMPSWVLESNDESGENVKGNLDKTTGIKYLIGGVSDAYKKDNVLTTLKFTVKRK
MGSDKIHHHHHHVPKNKDSKNNSIPRRRFGRTEIQIPVLSLGGMRFQQSWKDLDPKEINNQQQEILQKTISYAAQKGMHHIETARHYGTSERQIGWAFDQIDDPKRILQTKVPPNNDPSIFEQELELSMSRLGSKKIDLLAIHGINLPEHLDMTIRPNGCLQIVRRWQKDGLIGHVGFSTHANVDLIIKTIETGFFDYVNLHWYFIRQENEKALQAADANDLGVFIISPTDKGGHLHTPSLKLLDLCSPLHPIEFNDLFCLRDKRIHTLSVGASSPEDLDIHLSAISKMDTMHGVINTIEKRLINASYKSLGESWLTTWNIGLPRWDQTPGEINIPTLLWLNNLLEAWDMESFVKDRYGLLGRGGHWFPGANADCLDCEVSEDDLKKVLINSPWSSEIPSVLRKLKDRLGGERRDRLWGI
MGSDKIHHHHHHVSATISDLDRLLVAIAAIPTPWKEWPGGYPGRLDLALVDAVMSIRFRYGRERKDGSWTGARGAVLRYQAYSDHVAPAEKMKNLANQDPIALERILNRQKVHSGKTKACAIVEAAQRFLAIDVTEPAHLRPDDAEHRAQYTGVSGLGPVTWEYFTMLLSHDGVKADTWIRRFVERSVQRNVSSDEAGALIKEAANKLDVRETKLDYAVWNYASTTRLETMPKLS
MGSDKIHHHHHHVSDTVDHNAWKTTGVVVIQNDVLTLAGSNARALLNDGKGYTNFELDMDVRTTTGGKGYIGIHTDATDRKGYRIALNNDREDPVWWRMTGSLVSVRNLTKSFVKENEWFKMNIRVEGRLIRVRINGETVVEYIEPSKPFRLKENAKALLSQGTISLVGTGRGNLQFKNISLEAFSAKGIDIPAQWANAVDEQTDEIIRLHQEDFPVLDYHVHLKGGLTKEVAARQSRQTGVNYGLAINCGIGFSITNDTELYNYLDTMRTQPFILAMQAEGREWVTTFSEAARNSFDYVFTDAMTFLDHKGRRTHLWVNKEVIIDDEQAYMDMMLDRICSVLEEPVDMYVNSCFLPDAMSDRYDMFWTEERIDRFVNALAKSGKALEINELYHIPNKAIIQKAKAAGVKFTFGSNNITPEVGTLDYCIRMKKECGLTAQDMYKPHINI
MGSDKIHHHHHHVSVPTQHHLSAERLDQSAQFARITSTVEAPVLSLWLPDPQQAVPSACGRAVAGHDGPSEGAGGQRQGGESGQLCRAHLRLQPGPVLAGEAEAPPTRPQFLLVVATHLQRSFTREVKLHGRCPRRVRRPFHLITQIDNQVRGCRPDLTQHRREREGVPVHVADDCHSHPSSLAQTGAAPPANMRPMSILPDWRIRELAQAGMIEPFEDRLIRTAENGHVISYGLSSFGYDLRCADEWKVFTNVHGALVDPKNFDERSFVDLQANAIIIPPNSFVLARSLEYLRIPENVMVVALGKSTYARCGIVANVTPLEPGWEGHVTLEFSNTTPLPAKMYAFEGCVQLLFFEGERPAVTYRDRGGKYQKQRGVTLPRL
MGSDKIHHHHHHVVRKINFMNLIELLKKIKRKILAQMFNLNYRPYTHTTVIFESFGGRQISDSPLAIYKELKKTHPEYRLIWVVNKGLATQAEKNGYDYVIRGSFKWVRTIEKAQVWVENARLPQWVRKPDHIKLIQTWHGTPLKKLGLDIKNVVMPGTNTERYHQNFVREANRWDVLISPNTYSTNIFRQAFGYQNKIVEIGYPRNDKLANPTKEEIKLLKQKLGIPLDKKVIMYAPTYRDNQFFQKGKYSFELPFSLKEFQERFGSNAVLLLRMHYLIANSMDISGFEDFAYDVSSYADISELYLVSDLLITDYSSVFFDYAYLKRPILFYPYDYEIYKDELRGFYLDYQKDLPGKIAYNSVDLYDEIENELKENDISNNQQFEMFYKRFCGLNAGNASKRIVEEIERNL
MGSDKIHHHHHHYYLIVSQLLGDTASVKLLVPPGANPHLFSLKPSDAKTLEEADLIVANGLGLEPYLEKYREKTVFVSDFIPALLLIDDNPHIWLDPFFLKYYIVPGLYQVLIEKFPEKQSEIKQKAEEIVSGLDTVIRDSFKALLPYTGKTVVMAHPSFTYFFKEFGLELITLSSGHEHSTSFSTIKEILRKKEQIVALFREPQQPAEILSSLEKELRMKSFVLDPLGVNGEKTIVELLRKNLSVIQEALK
